Results as given in patent US20250230251A1 (Bristol-Myers Squibb, published 2025).

T1: IL-18:IL-18Rα complex (human, UniProt Q14116 37-193; Q13478 19-329, limits assumed)
T1 construct: Made by mixing 1.6 uM IL-18 with 100 nM IL-18Ra-Fc-His; also called complexed IL-18: IL-18Rα; not shown: Fc and His tag of the bought fusion protein, not described
T1 sequence (looked up) 1: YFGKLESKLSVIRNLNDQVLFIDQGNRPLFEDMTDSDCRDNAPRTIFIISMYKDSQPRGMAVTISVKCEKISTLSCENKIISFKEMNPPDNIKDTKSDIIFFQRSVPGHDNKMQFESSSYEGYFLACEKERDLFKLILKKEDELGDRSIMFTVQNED
T1 sequence (looked up) 2: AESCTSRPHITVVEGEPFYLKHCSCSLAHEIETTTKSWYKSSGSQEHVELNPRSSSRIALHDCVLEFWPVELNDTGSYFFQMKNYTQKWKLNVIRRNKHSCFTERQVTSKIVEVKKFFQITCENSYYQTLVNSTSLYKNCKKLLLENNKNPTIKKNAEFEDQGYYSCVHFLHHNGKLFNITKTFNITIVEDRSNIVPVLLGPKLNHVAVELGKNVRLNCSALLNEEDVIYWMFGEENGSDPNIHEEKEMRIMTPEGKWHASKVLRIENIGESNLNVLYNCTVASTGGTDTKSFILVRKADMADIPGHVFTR

T2: human IL-18Rβ on cells (human, UniProt O95256 20-599)
T2 sequence: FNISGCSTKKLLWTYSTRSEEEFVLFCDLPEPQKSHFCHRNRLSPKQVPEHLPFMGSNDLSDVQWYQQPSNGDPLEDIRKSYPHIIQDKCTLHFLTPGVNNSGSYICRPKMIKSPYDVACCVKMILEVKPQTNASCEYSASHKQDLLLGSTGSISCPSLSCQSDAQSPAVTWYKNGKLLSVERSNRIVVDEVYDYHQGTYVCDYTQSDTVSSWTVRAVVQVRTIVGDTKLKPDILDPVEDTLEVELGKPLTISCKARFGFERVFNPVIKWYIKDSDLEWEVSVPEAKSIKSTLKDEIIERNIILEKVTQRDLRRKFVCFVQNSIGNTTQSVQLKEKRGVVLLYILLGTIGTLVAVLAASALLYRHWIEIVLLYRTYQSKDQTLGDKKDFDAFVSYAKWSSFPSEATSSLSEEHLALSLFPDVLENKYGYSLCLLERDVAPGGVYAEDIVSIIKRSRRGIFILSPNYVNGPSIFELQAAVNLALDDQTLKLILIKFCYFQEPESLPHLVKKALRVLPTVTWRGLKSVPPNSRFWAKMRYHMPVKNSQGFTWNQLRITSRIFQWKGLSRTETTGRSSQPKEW

T3: cyIL-18Rβ-HisAvi (cynomolgus monkey)
T3 construct: Soluble analyte in SPR; also called cyno IL-18Rβ; cynomolgus monkey IL-18Rβ
T3 chain: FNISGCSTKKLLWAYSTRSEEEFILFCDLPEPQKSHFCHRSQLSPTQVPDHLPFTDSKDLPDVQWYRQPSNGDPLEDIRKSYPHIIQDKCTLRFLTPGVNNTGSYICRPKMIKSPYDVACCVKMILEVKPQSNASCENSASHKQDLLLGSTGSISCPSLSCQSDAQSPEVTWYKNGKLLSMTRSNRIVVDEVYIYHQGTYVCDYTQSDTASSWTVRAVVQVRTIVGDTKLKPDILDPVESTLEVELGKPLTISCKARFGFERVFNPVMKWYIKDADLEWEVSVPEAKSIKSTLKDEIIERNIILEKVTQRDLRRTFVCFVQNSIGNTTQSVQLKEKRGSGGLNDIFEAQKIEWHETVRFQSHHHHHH

B1: huIL-18Rβ-HisAvi (receptor)
chain: FNISGCSTKKLLWTYSTRSEEEFVLFCDLPEPQKSHFCHRNRLSPKQVPEHLPFMGSNDLSDVQWYQQPSNGDPLEDIRKSYPHIIQDKCTLHFLTPGVNNSGSYICRPKMIKSPYDVACCVKMILEVKPQTNASCEYSASHKQDLLLGSTGSISCPSLSCQSDAQSPAVTWYKNGKLLSVERSNRIVVDEVYDYHQGTYVCDYTQSDTVSSWTVRAVVQVRTIVGDTKLKPDILDPVEDTLEVELGKPLTISCKARFGFERVFNPVIKWYIKDSDLEWEVSVPEAKSIKSTLKDEIIERNIILEKVTQRDLRRKFVCFVQNSIGNTTQSVQLKEKR
modifications: biotinylated in the Octet blocking assay
notes: Soluble analyte in all SPR runs; captured on streptavidin sensors in the Octet assay; also called human IL-18Rβ; human IL-18Rβ-Avi-His

Assays:
IL-18:IL-18Rα complex = target: T1, IL-18:IL-18Rα complex; assay: Octet RED384 BLI, complex on sensor-captured biotin-hIL-18Rβ-Avi-His after the 50 nM antibody step
human IL-18Rβ on cells = target: T2, human IL-18Rβ on cells; assay: cell-based or functional assay
huIL-18Rβ-HisAvi [1] = target: B1; assay: SPR T200, pH 7.4 and pH 6
huIL-18Rβ-HisAvi [2] = target: B1; assay: SPR T200, mAb on anti-hFc, 37C, pH 7.4
cyIL-18Rβ-HisAvi [3] = target: T3, cyIL-18Rβ-HisAvi; assay: SPR T200, mAb on anti-hFc, 37C, pH 7.4
huIL-18Rβ-HisAvi [4] = target: B1; assay: SPR T200, mAb on anti-hFc, 37C, pH 6
cyIL-18Rβ-HisAvi [5] = target: T3, cyIL-18Rβ-HisAvi; assay: SPR T200, mAb on anti-hFc, 37C, pH 6

Row | binding result (IL-18:IL-18Rα complex) | IC50, LPS+IL-12 dependent IFNg production, human whole blood (human IL-18Rβ on cells) [nM] | fold weaker binding than the parent P20 (huIL-18Rβ-HisAvi [1]) [fold] | Kd (huIL-18Rβ-HisAvi [2]) [nM] | koff (huIL-18Rβ-HisAvi [2]) [s⁻¹] | kon (huIL-18Rβ-HisAvi [2]) [M⁻¹ s⁻¹] | Kd (cyIL-18Rβ-HisAvi [3]) [nM] | koff (cyIL-18Rβ-HisAvi [3]) [s⁻¹] | kon (cyIL-18Rβ-HisAvi [3]) [M⁻¹ s⁻¹] | Kd (huIL-18Rβ-HisAvi [4]) [nM] | koff (huIL-18Rβ-HisAvi [4]) [s⁻¹] | kon (huIL-18Rβ-HisAvi [4]) [M⁻¹ s⁻¹] | Kd (cyIL-18Rβ-HisAvi [5]) [nM] | koff (cyIL-18Rβ-HisAvi [5]) [s⁻¹] | kon (cyIL-18Rβ-HisAvi [5]) [M⁻¹ s⁻¹] | fold weaker off-rate and KD than the parent P20 (huIL-18Rβ-HisAvi [1]) [fold] | Binder
1 | binds |  |  |  |  |  |  |  |  |  |  |  |  |  |  |  | B1
2 |  | 37.6 | 100 | 42 | 0.0018 | 44000 | 88 | 0.002 | 23000 | 14 | 0.0037 | 270000 | 42 | 0.002 | 48000 |  | P20-V4 (antibody, human IgG1, kappa, name in Kabat numbering, built from the chains of the parent P20 with the printed mutations) heavy: QVQLQESGPGLVKPSETLSLTCTVSGGSINNYYWSWIRQPPGKGLEWIGYIFYSGTTNYNPSLKSRVTISVDTSKNQFSLKLSSVTAADTAVYYCARDVGIAARNSYYYVMDVWGQGTTVTVSSASTKGPSVFPLAPSSKSTSGGTAALGCLVKDYFPEPVTVSWNSGALTSGVHTFPAVLQSSGLYSLSSVVTVPSSSLGTQTYICNVNHKPSNTKVDKRVEPKSCDKTHTCPPCPAPEAEGAPSVFLFPPKPKDTLMISRTPEVTCVVVDVSHEDPEVKFNWYVDGVEVHNAKTKPREEQYNSTYRVVSVLTVLHQDWLNGKEYKCKVSNKALPAPIEKTISKAKGQPREPQVYTLPPSREEMTKNQVSLTCLVKGFYPSDIAVEWESNGQPENNYKTTPPVLDSDGSFFLYSKLTVDKSRWQQGNVFSCSVMHEALHNHYTQKSLSLSPG light: not shown
3 |  | 21.2 |  | 19 | 0.0011 | 56000 | 40 | 0.0013 | 34000 | 1.8 | 0.00059 | 340000 | 5.5 | 0.00097 | 180000 | 10 | P20-V5 (antibody, human IgG1, kappa, name in Kabat numbering, built from the chains of the parent P20 with the printed mutation) heavy: QVQLQQSGPGLVKPSETLSLTCTVSGGSINNYYWSWIRQPPGKGLEWIGYIFYSGTTNYNPSLKSRVTISVDTSKNQFSLKLSSVTAADTAVYYCARDVGIAARNSYYYVMDVWGQGTTVTVSSASTKGPSVFPLAPSSKSTSGGTAALGCLVKDYFPEPVTVSWNSGALTSGVHTFPAVLQSSGLYSLSSVVTVPSSSLGTQTYICNVNHKPSNTKVDKRVEPKSCDKTHTCPPCPAPEAEGAPSVFLFPPKPKDTLMISRTPEVTCVVVDVSHEDPEVKFNWYVDGVEVHNAKTKPREEQYNSTYRVVSVLTVLHQDWLNGKEYKCKVSNKALPAPIEKTISKAKGQPREPQVYTLPPSREEMTKNQVSLTCLVKGFYPSDIAVEWESNGQPENNYKTTPPVLDSDGSFFLYSKLTVDKSRWQQGNVFSCSVMHEALHNHYTQKSLSLSPG light: not shown
